Test [1] deals with T1, Human LILRB2 on primary human myeloid cells (human, UniProt Q8N423 22-597).
T1 construct: whole, on cells; the cell type is named under assay; also called LILRB2 on monocytes, M0 and M2c macrophages, myeloid dendritic cells, neutrophils
Nature of the test: flow cytometry, AF647-conjugated antibody on human M2c macrophages (10 subjects), average. As to the method:
Anti-LILRB2 antibodies were evaluated for their ability to bind myeloid cell subsets expressing LILRB2, including monocytes, M0 macrophages, and M2c macrophages. M2c macrophages are used as a surrogate for tumor-associated macrophages, a suppressive macrophage commonly found in the tumor microenvironment. Frozen monocytes were removed from storage in vapor phase liquid nitrogen and thawed by gentle swirling in a water bath at 37° C., then resuspended in X-VIVO™ 15 media with 10% FBS. PBMC were placed in a 15 mL conical tube and centrifuged at 300×g for 5 minutes, then supernatant was removed. Cells were resuspended in Assay Medium (X-VIVO™ 15+10% FBS) at a cell density of 2.5×10⁵ cells/mL. Cells were plated into 96-well flat bottom plates at 100 μL/well (25K cells/well). M0 and M2c macrophages were generated as described in Example 10 and collected from flasks by incubation for 15 min at RT in Macrophage Detachment Solution DXF, then removed from the flask into X-VIVO™ 15 medium. Following centrifugation, the cells were resuspended in FACS Blocking Buffer D (FACS Buffer+10% FBS+0.5 mg/mL human IgG1) then incubated at 4° C. for 30 minutes. […]
On the technique in general: A flow cytometer gives signals particle by particle.

The target in test [2] is T2, Recombinant human LILRB2 protein (ELISA antigen) (human, UniProt Q8N423 22-460).
T2 construct: also called LILRB2-His; recombinant LILRB2
T2 sequence (Q8N423 other isoform, or with tags, fused parts or gaps limits assumed): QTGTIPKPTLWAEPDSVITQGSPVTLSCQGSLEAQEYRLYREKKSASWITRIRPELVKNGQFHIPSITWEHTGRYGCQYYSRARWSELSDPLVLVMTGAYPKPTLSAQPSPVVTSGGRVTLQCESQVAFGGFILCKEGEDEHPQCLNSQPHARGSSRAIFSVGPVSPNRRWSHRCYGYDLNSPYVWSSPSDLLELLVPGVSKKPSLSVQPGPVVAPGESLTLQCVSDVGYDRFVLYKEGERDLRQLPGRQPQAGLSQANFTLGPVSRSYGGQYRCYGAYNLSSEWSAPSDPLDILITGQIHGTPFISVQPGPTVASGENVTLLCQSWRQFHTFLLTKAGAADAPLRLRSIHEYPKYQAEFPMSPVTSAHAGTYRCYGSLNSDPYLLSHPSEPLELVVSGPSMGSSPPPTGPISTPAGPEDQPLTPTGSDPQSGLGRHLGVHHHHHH
Nature of the test: ELISA, plate-coated recombinant human LILRB2. The protocol:
To confirm binding to human and cynomolgus LILRB2, antibodies in supernatants were evaluated for binding by enzyme-linked immunosorbent assay (ELISA). Recombinant LILRB2 proteins (human: SEQ ID NO: 48; cynomolgus) were diluted in PBS to 2 μg/mL and added to 384-well high-binding ELISA plates (Greiner Bio-One Microlon™) at 25 μL/well and incubated at 4° C. overnight. The plates were washed three times with Wash Buffer (0.05% Tween® 20 in PBS), using a microplate washer and then blocked with 90 μL/well of ELISA Blocking Buffer A (1% BSA in PBS) for 1 hour at room temperature (RT). After blocking, 25 μL/well of LILRB2 antibodies or isotype control were added to the plates and incubated for 1 hour at RT. After primary antibody binding, plates were washed three times with Wash Buffer using a microplate washer. Secondary detection antibody (HRP-goat anti-rabbit Fab fragment) was diluted to 1:3000 in assay diluent (1% BSA in PBS) and 25 μL/well was added to plates and incubated at RT protected from light for 1 hour. Following incubation, plates were washed four times with Wash Buffer, using a microplate washer. After removal of the final wash, 25 μL/well of 1-Step™ Ultra TMB-ELISA Substrate Solution (Thermo Fisher, No. 34028) was added and plates were incubated for 5-10 min at RT, protected from light. After development, the reaction was stopped by addition of 25 μL/well of 0.3 M HCl, and plates were read using an EnVision (Perkin Elmer) microplate reader at 450 nm. EC₅₀ values were calculated based on log concentration of the primary antibodies at optical density at 450 nm.
Select humanized variant antibodies were purified and tested for their ability to bind human LILRB2 by ELISA, using the method described in Example 2, and binding to HEK293T cells expressing human LILRB2, using the method described in Example 4. Representative data are shown for IgG4 variants in Table 6.
A general note: In an ELISA, binding on a coated surface is turned into a signal by an enzyme label.

T1 sequence (Q8N423 22-597): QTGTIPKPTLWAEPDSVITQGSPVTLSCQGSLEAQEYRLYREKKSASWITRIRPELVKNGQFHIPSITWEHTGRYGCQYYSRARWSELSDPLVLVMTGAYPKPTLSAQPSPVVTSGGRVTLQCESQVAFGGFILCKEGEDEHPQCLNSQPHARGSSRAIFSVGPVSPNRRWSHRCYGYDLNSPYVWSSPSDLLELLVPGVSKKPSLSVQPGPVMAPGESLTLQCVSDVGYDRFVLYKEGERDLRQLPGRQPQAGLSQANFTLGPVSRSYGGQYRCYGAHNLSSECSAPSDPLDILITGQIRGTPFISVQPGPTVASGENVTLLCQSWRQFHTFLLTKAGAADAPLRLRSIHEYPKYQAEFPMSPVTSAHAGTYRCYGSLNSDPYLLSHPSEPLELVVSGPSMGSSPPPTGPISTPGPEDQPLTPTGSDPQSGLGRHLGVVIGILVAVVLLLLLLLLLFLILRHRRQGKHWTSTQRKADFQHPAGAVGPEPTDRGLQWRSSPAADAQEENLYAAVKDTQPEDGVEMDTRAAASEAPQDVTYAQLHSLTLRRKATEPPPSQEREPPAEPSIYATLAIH

B1: B2H1-55 (antibody, V domains shown)
VH: EVQLLESGGGLVQPGTSLTLSCAASGFSLSTYAMSWVRQAPGKGLEWIGWIYNDGSTYYAAWAKGRFTISKDTSKTTLYLQITSLRAEDTATYFCAREGDYIGYFNIWGQGTLVTVSS
VL: DVVMTQTPSSVSAALGGTVTIKCQASQSIGSNLAWYQLKPGQRPKLLIYAAATLASGGSSRFKGSGSGTDFTLTISSLEPADAATYYCQSYVSGSSDVAFGGGTEVVVK
notes: Humanized variant, human IgG1 / kappa; also called humanized variant B2H1-55; humanized LILRB2 antibody B2H1-55
For orientation: EC50 means the midpoint of the concentration-response curve. B1: the midpoint of the response in test [1], the EC50, lay at 0.0243 µg/mL.

B2: B2A-IgG4 (antibody)
heavy: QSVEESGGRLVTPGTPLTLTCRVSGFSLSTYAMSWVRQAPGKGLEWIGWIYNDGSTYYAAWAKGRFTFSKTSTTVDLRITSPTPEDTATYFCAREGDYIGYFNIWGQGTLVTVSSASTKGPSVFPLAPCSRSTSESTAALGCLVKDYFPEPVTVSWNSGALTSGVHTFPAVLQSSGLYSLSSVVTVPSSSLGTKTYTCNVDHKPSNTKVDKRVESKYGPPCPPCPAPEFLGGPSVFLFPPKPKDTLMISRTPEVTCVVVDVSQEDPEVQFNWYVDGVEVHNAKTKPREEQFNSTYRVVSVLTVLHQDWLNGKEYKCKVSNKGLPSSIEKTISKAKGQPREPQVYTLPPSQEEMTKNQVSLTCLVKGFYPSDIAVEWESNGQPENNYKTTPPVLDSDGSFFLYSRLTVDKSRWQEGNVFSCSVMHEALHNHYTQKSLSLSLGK
light: DVVMTQTPSSVSAALGGTVTIKCQASQSIGSNLAWYQLKPGQRPKLLIYAAATLASGGSSRFKGSGSGTDFTLTISDLECADAATYYCQSYVSGSSDVAFGGGTEVVVKRTVAAPSVFIFPPSDEQLKSGTASVVCLLNNFYPREAKVQWKVDNALQSGNSQESVTEQDSKDSTYSLSSTLTLSKADYEKHKVYACEVTHQGLSSPVTKSFNRGEC
notes: Rabbit variable regions on human IgG4 / kappa constant regions; also called B2A-IgG4 chimera; Parent B2A-IgG4
For B2, in test [2], the concentration giving a half-maximal response (EC50) was determined as 0.00235 µg/mL.

The values above are taken from patent US20240132589A1 (ONCORESPONSE, published 2024).
